The Human Domainome abundance scans (Beltran et al. 2025)

B1: Membrane-associated guanylate kinase, WW and PDZ domain-containing protein 2, residues 601 to 682; numbered along this chain, Q86UL8 (parent)
chain: AELMTLTIVKGAQGFGFTIADSPTGQRVKQILDIQGCPGLCEGDLIVEINQQNVQNLSHTEVVDILKDCPIGSETSLIIHRG

Variants of: B1
Experiment: abundance fitness (aPCA) (normalised: wild type 0, dead -1); higher = more abundant; growth selection in yeast, the domain comes from the species named
Conditions: Homo sapiens

Abundance fitness: each site, then its substitutions
C37: D -0.052, K -0.208, A -0.195, W -0.287, E 0.005, P -0.384, T -0.05, M -0.16, S 0.012, F 0.204, V -0.119, R -0.163, G -0.28, Y -0.036, I -0.173, Q -0.113
S22: V -0.063, C -0.117, N -0.39, P -0.671, F -0.105, G 0.03, T -0.076, D 0.048, R 0.03, K 0.062, E -0.114, Y -0.04, W -0.056, L -0.049, Q 0.023, A 0.075
F17: P -1.04, N -1.36, A -0.697, S -1.29, M -0.105, Y -0.277, E -0.75, D -1.18, R -1.12, I -0.057, Q -1.07, K -0.978, L -0.124, C -0.303, H -0.881, G -1.11, T -1.2, W -0.022
K29: A -0.095, I -0.395, G -0.004, D 0.108, C -0.091, H 0.181, S 0.039, E 0.084, V -0.122, R -0.047, Q -0.053, L -0.212
V28: L -0.215, S -0.849, E -1.03, P -1.09, I 0.144, Q -0.718, N -0.564, A -0.305, T -0.538, G -0.655, C -0.077
I31: H -0.316, Y -0.221, R -0.283, A -0.101, T -0.097, K 0.197, M -0.084, V -0.035, S -0.251, Q -0.091, G -0.11, C -0.185, P -0.181, N -0.219, W -0.665, L 0.011
A20: M 0.228, G -0.069, N -0.142, S 0.003, R -0.172, Q 0.217, K -0.026, V -0.11, E -0.147, I 0.203
T18: W -0.075, F -0.149, P -1.1, G -0.068, N 0.001, Q -0.066, V -0.024, C -0.044, S -0.013, L 0.01, Y -0.032, K 0.044, H -0.134, D -0.011, I 0.008, M -0.061, E 0
I34: P -0.072, G -0.021, D -0.036, Y 0.013, R -0.092, E -0.045, N 0.034, K -0.007, W -0.101, M -0.061, F -0.066, H -0.153, T -0.072, Q -0.031, V 0.017, S -0.017, C -0.076, A -0.026, L 0.007
G36: P -0.057, S -0.158, M 0.04, E 0.037, H -0.126, F -0.245, L -0.261, C -0.044, V -0.009, A -0.241, Q -0.054, N 0.055, R -0.069, T 0.064
Q30: P -0.103, H -0.062, N -0.302, R -0.111, T -0.117, V -0.102, L 0.066, F 0.234, M 0.098, A -0.052, E -0.188, Y -0.064, W 0.04, C -0.205, K 0.363, D -0.022, S -0.076
G25: Y -0.177
